Assays:
[1] = substrate: CC1=C(/C=C/C(C)=C/C=C/C(C)=C/C=O)C(C)(C)CCC1; test: HPLC of retinol formed, microsomes of Sf9 cells; type: biochemical, Drosophila melanogaster; details: apparent; 1 mM NADPH; BSA-solubilized substrate; ambient temperature; reduction
[2] = substrate: CC1=C(/C=C/C(C)=C/C=C/C(C)=C/C=O)C(C)(C)CC(O)C1; test: HPLC of 3-hydroxyretinol formed, microsomes of Sf9 cells; type: biochemical, Drosophila melanogaster; details: apparent; 1 mM NADPH; BSA-solubilized substrate; ambient temperature; reduction

Protein	Km [1]	Vmax [1]	Km [2]	Vmax [2]
CG2070 (Drosophila melanogaster) (protein) MSAPTDYLFCPLAYGSALSAIGIYLLRQYMQGGQFTTKTNETGRVAIVTGCNQGIGKETVLELARRGATVYMACRDMKKCENARREIIKATNNQNIFARQLDLCSMKSIRNFAAGFKREQNKLHILINNAGIMDCPKMLTEDGFEMQIGVNHMGHFLLTLLLLDVLKSSAPSRVVVLSSIAHRFGRIKRDDLNSEKSYDRKMAYCQSKLANVLFTRELAKRLSGTGVTVNALHPGVVNTELFRNTPFLGSWFGKLLIAPIIWIFIKTARNGAQTTLYAALDPSLEKVSGRYFSDCKQKHVGSAAQYDDDAQFLWAESEKWTGINI	0.4 ± 0.1 µM	0.021 µmol/min/mg	–	–
CG2065 (Drosophila melanogaster) (protein) MQGGQFTKQTDETGKVFIVTGANTGIGKETVLEIAKRGGTVYMACRDMNRCEKARQDIIRETNNQNIFSRELDLSSLESIRKFAAGFKKEQDKLHVLINNAGVMHCPRTLTKDGFEMQLGVNHMGHFLLTHLLLDVLKKTAPSRIVNVSSLVHTQGFIKTADLNSEKSYSRIGAYSQSKLANVLFTRELAKRLEGTGVTTNSLHPGAVDTELSRNWKFLKHPFAQLLLKPLLWVLFKTPRNGAQTTLYAALDPALKDVSGLYFSDCQPKEVSAAAQDDKTGKFLWAESEKWTGVNSTKVD	0.7 ± 0.1 µM	0.0016 µmol/min/mg	4.4 ± 0.6 µM	0.001 µmol/min/mg
CG2064 (Drosophila melanogaster) (protein) MCIFIDCLLSPLIMWPATIGVGIYFLKEYMQGGKFTKDTDETGKVFIVTGANTGIGKETALEIARRGGTVYLACRDMNRCEKARKDIIKETNNQNIFSRELDLSSLDSIRKFVDGFKKEQPKLHVLINNAGVMRCPKTLTKDGYELQLGVNHIGHFLLTNLLLDVLKNSAPSRIVVVSSLAHARGSINVADLNSEKSYDEGLAYSQSKLANVLFTRELAKRLEGSGVTVNALHPGVVDTELARNWAFFQTNLVKFFLKPMIWPLLKTPKSGAQTSIYAALDPELKNISGLYFSDCKPKPVASGALDDKVAKFLWAESEKWTGLDKLEANN	4.2 ± 1.2 µM	0.0016 µmol/min/mg	2.7 ± 0.9 µM	0.00045 µmol/min/mg
CG3842 (Drosophila melanogaster) (protein) MSEAATPPGSVPGTVFPPGFDPTAESVEKTLCFRGFWAWAVLIFLIVLGILLFMWLLRKCIQGPAYRKANRIDGKVVIVTGCNTGIGKETVLELAKRGARVYMACRDPGRCEAARLDIMDRSRNQQLFNRTLDLGSLQSVRNFVERFKAEESRLDILINNAGVMACPRTLTADGFEQQFGVNHLGHFLLTNLLLDRLKHSSPSRIVVVSSAAHLFGRINREDLMSEKNYSKFFGAYSQSKLANILFTLKLSTILKDTGVTVNCCHPGVVRTEINRHFSGPGWMKTALQKGSLYFFKTPKAGAQTQLRLALDPQLEGSTGGYYSDCMRWPLFPWVRNMQTADWLWRESEKLLGLPPLEPPPPVQSPTQNGNGTQNGNGSSSASASASSNNPASREMQSVETVVVNRS	0.27 ± 0.05 µM	0.007 µmol/min/mg	4.1 ± 0.1 µM	0.025 µmol/min/mg
CG30491 (Drosophila melanogaster) (protein) MSLFAFLKSRTAFWLSFTGTTTGLAFFVKDLMQGGQFTKETNETGKVFIVTGANTGIGKETVREIAKRGGTVYMACRNLKKCEEAREEIVLETKNKYVYCRQCDLASQESIRHFVAAFKREQEHLHVLINNAGVMRCPRSLTSDGIELQLGVNHMGHFLLTNLLLDLLKKSSPSRIVNVSSLAHTRGEINTGDLNSDKSYDEGKAYSQSKLANVLFTRELAKRLEGTNVTANALHPGVVDTEIIRHMGFFNNFFAGLFVKPLFWPFVKTPRNGAQTSLYVALDPELEKVTGQYFSDCKLKEMAPAATDTQTAKWLWAVSEKWTKPTMIKIQ	0.6 ± 0.1 µM	–	3.2 ± 0.3 µM	0.029 µmol/min/mg

From article PMC2782731
